{"source": "patent US20240301362A1", "molecular_target": "CD46 (UniProt P15529)", "sequence (P15529 35-343)": "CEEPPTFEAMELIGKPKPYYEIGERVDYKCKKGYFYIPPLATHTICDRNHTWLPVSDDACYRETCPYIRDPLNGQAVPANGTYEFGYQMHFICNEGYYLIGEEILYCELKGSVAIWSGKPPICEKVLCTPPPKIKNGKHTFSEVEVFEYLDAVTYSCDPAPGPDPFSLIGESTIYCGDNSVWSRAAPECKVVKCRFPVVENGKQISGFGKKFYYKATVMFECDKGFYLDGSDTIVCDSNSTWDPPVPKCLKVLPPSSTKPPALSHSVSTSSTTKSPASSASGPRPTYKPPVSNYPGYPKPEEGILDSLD", "experiment": "Kd determination, method not stated (column head 'Kd (Oleks)')", "data": [{"substance": "Ad11 knob (from UniProt P35774 123-325)", "values": [{"measurement": "Kd", "result": 11.2, "unit": "nM"}]}, {"substance": "wtAd35(207Asp) knob", "values": [{"measurement": "Kd", "result": 15, "unit": "nM"}]}, {"substance": "Mutated Ad35 Knob A8: Ile192Val Ile256Val (from UniProt Q92854)", "values": [{"measurement": "Kd", "result": 13.7, "unit": "nM"}]}]}
